# Data reported in article PMC12207370, “Macrocyclic Peptide Probes for Immunomodulatory Protein CD59: Potent Modulators of Bacterial Toxin Activity and Antibody‐Dependent Cytotoxicity” (Angewandte Chemie (International Ed. in English), 2025).
# Biological target: T1, biotinylated CD59 (Homo sapiens, UniProt P13987)
# T1 construct: Recombinant soluble human CD59 with an additional C-terminal cysteine residue
# T1 sequence (P13987 26-102 limits assumed): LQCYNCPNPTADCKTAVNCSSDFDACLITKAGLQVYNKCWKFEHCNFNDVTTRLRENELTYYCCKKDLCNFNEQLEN
# Assay: mRNA-display cyclic peptide screen against CD59-biotin, NGS abundance after 6th selection round
# Settings: for Counts (raw counts for peptide sequence), Seq I: NGS sample Seq I; for Counts (raw counts for peptide sequence), Seq I / Counts (raw counts for peptide sequence), Seq II / Counts Seq I / Counts Seq II: sheet R6 (6th selection round); for Counts (raw counts for peptide sequence), Seq II: NGS sample Seq II; for Percentage of the pool, averaged across the two sequencing samples: average of Seq I and Seq II; for Percentage of the pool, averaged across the two sequencing samples / Percentage of the pool, Seq I / Percentage of the pool, Seq II / Percentage Seq I / Percentage Seq II / Percentage Average: sheet R6; for Percentage of the pool, Seq I: counts normalised by total counts of NGS sample Seq I; for Percentage of the pool, Seq II: counts normalised by total counts of NGS sample Seq II; for Percentage Seq I: counts normalised by total counts of sample Seq I; for Percentage Seq I / Percentage Seq II: percentage of the pool; for Percentage Seq II: counts normalised by total counts of sample Seq II; for Percentage Average: percentage of the pool averaged across the two sequencing samples; for Counts Seq I / Counts Seq II: raw NGS counts of peptide sequence; for Counts Seq I: sequencing sample Seq I; for Counts Seq II: sequencing sample Seq II
# Description: To discover novel non‐protein CD59 ligands, we screened a library of 10^12 cyclic peptides against CD59 using mRNA‐display (Figure 2a).^[ [23], [24], [25], [26], [27], [28], [29] ^] Briefly, an mRNA library was designed in which the start codon was reprogrammed from Met to N‐chloroacetyl‐D‐Tyr (ClAc‐D‐Tyr), followed by 10–12 randomly encoded natural amino acids, a Cys residue, a (GlySer)3 linker, and a stop codon. […] The total library diversity was 1.51 × 10^13 molecules, comprising 5.02 × 10^12 molecules of each macrocycle size, covering a subset of the maximum theoretical diversity of this library design. Following in vitro translation, ClAc‐D‐Tyr spontaneously reacts with either the C‐terminal Cys or a Cys in the random region, yielding macrocyclic thioether peptides. Hits from the library were identified through iterative enrichment and amplification against biotinylated CD59, then immobilized on streptavidin beads. Fifteen hit sequences (CP‐01 to CP‐15), enriched with abundance >1% relative to the total pool of recovered binders after the 6th round of selection, were synthesized by solid phase peptide synthesis (SPPS), without the (Gly‐Ser)3 linker.
# Figure 2 Discovery of macrocyclic peptide ligands with nanomolar CD59 affinity using mRNA display. a) The selection process. PCR = polymerase chain reaction, SPPS = solid phase peptide synthesis. b) Table showing details of the peptides with nanomolar affinity for CD59 as well as the binding affinity of the lead inhibitor of CD59, rILYd4. K D values are presented as the average of three technical replicates ± SEM. Structures of all peptides and SPR sensograms are presented in Figures S1 and S2. *indicates the presented sequences are the variable regions of these cyclic peptides; each is flanked by an N‐terminal Ac‐D‐Tyr cyclized to a C‐terminal Cys. R6 abundance (%) is defined as (the given number of NGS reads for a given sequence/the total number of reads of unique sequences observed in NGS)*100 following the 6th selection round. c) Representative sensogram of the interaction between CP‐06 with immobilized CD59 by SPR analysis. Inset showing the equilibrium binding curve of CP‐06 to CD‐59. Below in the box are the association and dissociation rate constants of CP‐06. Concentrations are plotted in descending order from 800‐3.1 nM in line with their position on the legend. […] (nM)'; the box with Kon/Koff has no label of its own / ILYd4: the label may be cut off at the left edge (possibly 'rILYd4') / CP-02, KD: 15.3 ± 0.2, small print, 3 or 8 uncertain / CP-03, KD: 23.4 ± 0.7, small print / CP-06, KD: 11.3 ± 0.0, small print, 3 or 8 uncertain / CP-13, KD: 10.8 ± 0.7, small print, 8 or 6 uncertain / ILYd4, KD: 48.3 ± 1.1, small print, 8 and 3 uncertain
# The mRNA-display cyclic peptide screen was performed against CD59-biotin by T.E.M: DNA templates for transcription were generated by PCR in a similar manner to that previously described.^2 RNA oligonucleotides were transcribed from the DNA templates using T7 RNA polymerase and purified by phenol/chloroform extraction followed by ethanol precipitation. Oligonucleotide concentrations were determined spectroscopically by absorbance at 260 nm. In the first selection round a 1:1:1 molar ratio of NNK10/NNK11/NNK12 was used. The procedure for selection rounds 2-6 is described below; round 1 was conducted at twice the scale.
# RNA encoding for the peptide library ligated to a puromycin-modified oligonucleotide was […] (final [RNA] = 2.5 µM) using a customised PURE express kit (lacking release factor 1 and methionine, supplemented with […] initiator tRNA acylated with N-chloroacetyl-d-tyrosine prepared as previously described)^3 in a final volume of 5.6 µL for 1 hour at 37 °C.
# This mixture was incubated at 42 °C for 1 hour before being diluted to 500 µL with PBS (10 mM Na-PO4 pH 7.4, 2.7 mM KCl, 137 mM NaCl) and 0.5 µL taken for subsequent use in qPCR. […]
sequence,measurement,value
CSAGRLTIDAV,"Counts (raw counts for peptide sequence), Seq I",37
same,"Counts (raw counts for peptide sequence), Seq II",6
same,"Percentage of the pool, averaged across the two sequencing samples",0.011%
same,"Percentage of the pool, Seq I",0.00846%
same,"Percentage of the pool, Seq II",0.014%
FARGDRNHQFY,"Counts (raw counts for peptide sequence), Seq I",63
same,"Counts (raw counts for peptide sequence), Seq II",5
same,"Percentage of the pool, averaged across the two sequencing samples",0.013%
same,"Percentage of the pool, Seq I",0.014%
same,"Percentage of the pool, Seq II",0.012%
ASWLTAPCYV,Percentage Seq I,0.032%
same,Percentage Seq II,0.019%
same,Percentage Average,0.025%
same,Counts Seq I,138
same,Counts Seq II,8
DCWVRGSRNYT,"Counts (raw counts for peptide sequence), Seq I",62
same,"Counts (raw counts for peptide sequence), Seq II",6
same,"Percentage of the pool, averaged across the two sequencing samples",0.014%
same,"Percentage of the pool, Seq I",0.014%
same,"Percentage of the pool, Seq II",0.014%
NTAWGNVAVAYF,Percentage Seq I,0.042%
same,Percentage Seq II,0.030%
same,Percentage Average,0.036%
same,Counts Seq I,183
same,Counts Seq II,13
HVFGNRSFARG,"Counts (raw counts for peptide sequence), Seq I",78
same,"Counts (raw counts for peptide sequence), Seq II",6
same,"Percentage of the pool, averaged across the two sequencing samples",0.016%
same,"Percentage of the pool, Seq I",0.018%
same,"Percentage of the pool, Seq II",0.014%
SAWGDRQIQYY,"Counts (raw counts for peptide sequence), Seq I",64
same,"Counts (raw counts for peptide sequence), Seq II",6
same,"Percentage of the pool, averaged across the two sequencing samples",0.014%
same,"Percentage of the pool, Seq I",0.015%
same,"Percentage of the pool, Seq II",0.014%
SAWGNRQIKYY,"Counts (raw counts for peptide sequence), Seq I",65
same,"Counts (raw counts for peptide sequence), Seq II",6
same,"Percentage of the pool, averaged across the two sequencing samples",0.014%
same,"Percentage of the pool, Seq I",0.015%
same,"Percentage of the pool, Seq II",0.014%
FVRGDLYSALG,"Counts (raw counts for peptide sequence), Seq I",80
same,"Counts (raw counts for peptide sequence), Seq II",6
same,"Percentage of the pool, averaged across the two sequencing samples",0.016%
same,"Percentage of the pool, Seq I",0.018%
same,"Percentage of the pool, Seq II",0.014%
IASGSLHFVFY,Percentage Seq I,0.027%
same,Percentage Seq II,0.032%
same,Percentage Average,0.030%
same,Counts Seq I,119
same,Counts Seq II,14
WILGSRWWTQR,Percentage Seq I,0.021%
same,Percentage Seq II,0.021%
same,Percentage Average,0.021%
same,Counts Seq I,91
same,Counts Seq II,9
YVRGDAWTVLG,Percentage Seq I,0.027%
same,Percentage Seq II,0.019%
same,Percentage Average,0.023%
same,Counts Seq I,117
same,Counts Seq II,8
SSWAQVPCYS,Percentage Seq I,0.040%
same,Percentage Seq II,0.032%
same,Percentage Average,0.036%
same,Counts Seq I,175
same,Counts Seq II,14
GRVRTCPVIV,"Counts (raw counts for peptide sequence), Seq I",65
same,"Counts (raw counts for peptide sequence), Seq II",5
same,"Percentage of the pool, averaged across the two sequencing samples",0.013%
same,"Percentage of the pool, Seq I",0.015%
same,"Percentage of the pool, Seq II",0.012%
CFVLRRNFEGT,"Counts (raw counts for peptide sequence), Seq I",53
same,"Counts (raw counts for peptide sequence), Seq II",5
same,"Percentage of the pool, averaged across the two sequencing samples",0.012%
same,"Percentage of the pool, Seq I",0.012%
same,"Percentage of the pool, Seq II",0.012%
CFSSRTSLISGV,"Counts (raw counts for peptide sequence), Seq I",27
same,"Counts (raw counts for peptide sequence), Seq II",6
same,"Percentage of the pool, averaged across the two sequencing samples",0.010%
same,"Percentage of the pool, Seq I",0.006%
same,"Percentage of the pool, Seq II",0.014%
SKNGLTFLCN,Percentage Seq I,0.181%
same,Percentage Seq II,0.211%
same,Percentage Average,0.196%
same,Counts Seq I,794
same,Counts Seq II,91
CFAKRIVALHST,"Counts (raw counts for peptide sequence), Seq I",54
same,"Counts (raw counts for peptide sequence), Seq II",7
same,"Percentage of the pool, averaged across the two sequencing samples",0.014%
same,"Percentage of the pool, Seq I",0.012%
same,"Percentage of the pool, Seq II",0.016%
CFTNRLDNSST,Percentage Seq I,0.072%
same,Percentage Seq II,0.067%
same,Percentage Average,0.070%
same,Counts Seq I,314
same,Counts Seq II,29
CFLTRASQLSGT,"Counts (raw counts for peptide sequence), Seq I",44
same,"Counts (raw counts for peptide sequence), Seq II",4
same,"Percentage of the pool, averaged across the two sequencing samples",0.010%
same,"Percentage of the pool, Seq I",0.010%
same,"Percentage of the pool, Seq II",0.009%
CPQLILRGWQ,Percentage Seq I,0.030%
same,Percentage Seq II,0.044%
same,Percentage Average,0.037%
same,Counts Seq I,133
same,Counts Seq II,19
CFVNRLGSAESR,"Counts (raw counts for peptide sequence), Seq I",63
same,"Counts (raw counts for peptide sequence), Seq II",9
same,"Percentage of the pool, averaged across the two sequencing samples",0.018%
same,"Percentage of the pool, Seq I",0.014%
same,"Percentage of the pool, Seq II",0.021%
IQSGSQSWSRG,Percentage Seq I,0.037%
same,Percentage Seq II,0.035%
same,Percentage Average,0.036%
same,Counts Seq I,164
same,Counts Seq II,15
WRDRFDQCVP,Percentage Seq I,0.038%
same,Percentage Seq II,0.053%
same,Percentage Average,0.046%
same,Counts Seq I,167
same,Counts Seq II,23
